Data on one substance can be found in PMC5882805.

Test [1] deals with Islet amyloid polypeptide (IAPP), human (human) (UniProt P10997). Description: FRET or BRET; diluted-FRET inside live INS-1 cells; 10 uM IAPP, no ADM-116 (toxic condition); donor:acceptor:unlabelled 1:1:500; 24 h. (BRET reads energy transfer from a luciferase to a nearby fluorophore.)
Test [2] has the same target. Description: FRET or BRET; diluted-FRET inside live INS-1 cells; 10 uM IAPP, no ADM-116 (toxic condition); donor:acceptor:unlabelled 1:1:500; 48 h.
The target is the same in test [3]. Description: FRET or BRET; diluted-FRET inside live INS-1 cells; 10 uM IAPP in the medium, equimolar ADM-116 added 3 h later (rescued condition); donor:acceptor:unlabelled 1:1:100; 24 h and 48 h.
Test [4] shares this target. Description: FRET or BRET; diluted-FRET by confocal imaging on GPMVs from INS-1 cells; 50 uM IAPP, 5 uM phospholipid, no ADM-116 (10:1:0); donor:acceptor:unlabelled 1:1:500; first 34 min (small sieve size leakage).

In the case of “Islet amyloid polypeptide (IAPP), human (from UniProt P10997 34-70)”, in test [1], the FRETeff (peak at 24 h) came to 0.36. This substance had an FRETeff (peak at 48 h) in test [2] of 0.62. Moreover, the FRETeff (single peak, rescued with ADM-116) in test [3] turned out to be 0.6. For the same substance, in test [4], the FRETeff (peak 1 of 4, first 34 min) worked out at 0.21; the FRETeff (peak 2 of 4, first 34 min) stood at 0.36; the FRETeff (peak 3 of 4, first 34 min) amounted to 0.41; the FRETeff (peak 4 of 4, first 34 min) amounted to 0.58.
